T1: human CD3εγ single-chain antigen (human)
T1 construct: also called scCD3εγ; His-scCD3 antigen
T1 chain: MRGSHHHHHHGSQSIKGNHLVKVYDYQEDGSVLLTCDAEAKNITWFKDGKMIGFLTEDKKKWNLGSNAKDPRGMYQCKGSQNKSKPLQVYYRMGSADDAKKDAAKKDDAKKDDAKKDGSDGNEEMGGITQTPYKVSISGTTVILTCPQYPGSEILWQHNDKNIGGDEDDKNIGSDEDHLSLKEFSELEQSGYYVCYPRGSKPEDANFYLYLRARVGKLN

T2: recombinant human TROP-2/human IgG Fc fused form (R&D Systems, Inc.) (human, UniProt P09758 27-274, limits assumed)
T2 construct: Bought reagent; also called TROP-2/Fc; not shown: human IgG Fc
T2 sequence (looked up): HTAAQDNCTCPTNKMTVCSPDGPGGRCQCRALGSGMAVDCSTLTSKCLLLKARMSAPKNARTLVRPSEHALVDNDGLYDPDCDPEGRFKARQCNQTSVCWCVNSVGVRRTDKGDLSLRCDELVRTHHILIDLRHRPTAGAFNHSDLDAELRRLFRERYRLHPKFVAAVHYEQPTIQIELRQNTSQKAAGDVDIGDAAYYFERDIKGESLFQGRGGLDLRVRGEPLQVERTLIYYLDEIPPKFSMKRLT

T3: human TROP2 on FaDu and HPAF-II cells (human, UniProt P09758 27-323)
T3 construct: whole, on cells
T3 sequence (looked up): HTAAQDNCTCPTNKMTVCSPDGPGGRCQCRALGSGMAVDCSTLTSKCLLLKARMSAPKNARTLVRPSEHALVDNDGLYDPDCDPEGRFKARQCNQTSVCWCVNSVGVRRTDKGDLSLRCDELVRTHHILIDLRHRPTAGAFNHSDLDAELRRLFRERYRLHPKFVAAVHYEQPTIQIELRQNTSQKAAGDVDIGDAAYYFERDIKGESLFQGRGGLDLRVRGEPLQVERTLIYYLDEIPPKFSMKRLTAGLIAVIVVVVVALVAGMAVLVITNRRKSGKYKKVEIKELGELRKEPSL

B1: T2C-0001 (HT1-11 scFv/C3E-7034 bispecific molecule) (bispecific antibody)
chain: GQVQLVQSGAEVKKPGASVKVSCKASGYTFTTAGMQWVRQAPGQGLEWMGWINTHSGVPKYAEDFKGRVTISADTSTSTAYLQLSSLKSEDTAVYYCARSGFGSSYWYFDVWGQGTLVTVSSGGGGSGGGGSGGGGSDIQMTQSPSSLSASVGDRVTITCKASQDVSTAVAWYQQKPGKAPKLLIYSASYRYTGVPSRFSGSGSGTDFTLTISSLQPEDFAVYYCQQHYITPLTFGQGTKLEIKRTGGGGSEVQLVESGGGLVQPGGSLRLSCAASGVTFNYYGMSWIRQAPGKGLEWVASITNSGGRIYYPDSVKGRFTISRENTQKTLYLQMNSLRAEDTAVYYCTLDGRDGWVAYWGQGTLVTVSSGGGGSGGGGSGGGGSNFMLTQPHSVSESPGKTVTISCKRNTGNIGSNYVNWYQQHEGSSPTTIIYRDDKRPDGVSDRFSGSIDRSSKSASLTISNLKTEDEADYFCQSYSSGFIFGGGTKLTVLGAAAGAGGDYKDDDDKGAAAHHHHHH
notes: Tandem scFv; also called anti-TROP2-CD3 bispecific molecule
B2: HT1-11 scFv (humanized anti-TROP2 scFv) (scFv)
scFv: QVQLVQSGAEVKKPGASVKVSCKASGYTFTTAGMQWVRQAPGQGLEWMGWINTHSGVPKYAEDFKGRVTISADTSTSTAYLQLSSLKSEDTAVYYCARSGFGSSYWYFDVWGQGTLVTVSSGGGGSGGGGSGGGGSDIQMTQSPSSLSASVGDRVTITCKASQDVSTAVAWYQQKPGKAPKLLIYSASYRYTGVPSRFSGSGSGTDFTLTISSLQPEDFAVYYCQQHYITPLTFGQGTKLEIKRTGAAAHHHHHH
notes: The scFv was detected through its His tag
B3: T2C-0005 (HT1-11 scFv/C3E-7035 bispecific molecule) (bispecific antibody)
chain: GQVQLVQSGAEVKKPGASVKVSCKASGYTFTTAGMQWVRQAPGQGLEWMGWINTHSGVPKYAEDFKGRVTISADTSTSTAYLQLSSLKSEDTAVYYCARSGFGSSYWYFDVWGQGTLVTVSSGGGGSGGGGSGGGGSDIQMTQSPSSLSASVGDRVTITCKASQDVSTAVAWYQQKPGKAPKLLIYSASYRYTGVPSRFSGSGSGTDFTLTISSLQPEDFAVYYCQQHYITPLTFGQGTKLEIKRTGGGGSEVQLVESGGGLVQPGGSLRLSCAASGVTFNYYGMSWIRQAPGKGLEWVASITNSGGRIYYPDSVKGRFTISRENTQKTLYLQMNSLRAEDTAVYYCTLDGRDGWVAYWGQGTLVTVSSGGGGSGGGGSGGGGSMAQAVLTQPSSVSGVPGQRVTISCKRNTGNIGSNYVNWYQQLPGTAPKLLIYRDDKRPSGVPDRFSGSKSGTSASLAITGFQAEDEADYYCQSYSSGFIFGGGTKLTVLGAAAGAGGDYKDDDDKGAAAHHHHHH
notes: as for B1
B4: rat anti-CD3 monoclonal antibody C3-147 (antibody, IgG2b, V domains shown)
VH: EVQLVESGGGLVQPGRALKLSCVVSGVTFNYYGMSWIRQAPGKGLEWVASITNSGGRIYYPDSVKGRFTISRENTQKTLYLQMNSLRSEDTATYYCTLDGRDGWVAYWGQGTLVTVSS
VL: QFVLTQPNSVSTNLGTTVELSCKRNTGNIGSNYVNWYQQHEGRSPTTIIYRDDKRPDGVSDRFSGSIDRSSKSALLTINNVQTEDEADYFCQSYSSGFIFGGGTKLTVL
notes: probably lambda; also called rat anti-human CD3 antibody
B5: C3E-7034 (humanized anti-CD3 scFv) (scFv)
scFv: GEVQLVESGGGLVQPGGSLRLSCAASGVTFNYYGMSWIRQAPGKGLEWVASITNSGGRIYYPDSVKGRFTISRENTQKTLYLQMNSLRAEDTAVYYCTLDGRDGWVAYWGQGTLVTVSSGGGGSGGGGSGGGGSNFMLTQPHSVSESPGKTVTISCKRNTGNIGSNYVNWYQQHEGSSPTTIIYRDDKRPDGVSDRFSGSIDRSSKSASLTISNLKTEDEADYFCQSYSSGFIFGGGTKLTVLGAAAGAGGDYKDDDDKGAAAHHHHHH

What was measured:
[1] = molecular target: T1, human CD3εγ single-chain antigen; assay: SPR (BIAcore 3000), human CD3εγ single-chain antigen immobilized, bispecific as analyte; KD from the amount bound at each concentration
Protocol: The bispecific molecule was assayed for its binding to the CD3εγ antigen using BIAcore 3000 (GE Healthcare Bio-Sciences Corp.) by a method which involves immobilizing the antigen and assaying the antibody as an analyte. […] Approximately 100 RU of the antigen was covalently bound to a sensor chip CM5 (GE Healthcare Bio-Sciences Corp.) by the amine coupling method. Immobilization treatment was performed without the addition of an antigenic protein as a reference cell. […] The bispecific molecule was prepared at a 2-fold dilution ratio from 1 μM (highest concentration) to 4 nM or at a 2-fold dilution ration from 200 nM to 1 nM. Each concentration of the bispecific molecule was added to the antigen-immobilized chip at a flow rate of […] for 25 minutes, and the amount of the bispecific molecule bound thereto was monitored. A 10 mM glycine-hydrochloric acid solution (pH 1.5) was added as a regenerating solution for 30 seconds. The data was analyzed using analytical software (BIAevaluation software, version 4.1.1) to calculate a dissociation constant KD from the amount of the bispecific molecule bound at each concentration.

[2] = molecular target: T4, cynomolgus monkey CD3 on cynomolgus monkey PBMC or T cell line HSC-F (cynomolgus monkey, UniProt Q95LI5 22-198); assay: flow cytometry on cynomolgus monkey PBMC, Penta-His Alexa Fluor 488 detection, rMFI
T4 construct: whole, on cells; Native CD3 complex on monkey T cells; also called cynomolgus monkey CD3 (PBMC); cynomolgus monkey CD3 antigen
T4 sequence (Q95LI5 22-198): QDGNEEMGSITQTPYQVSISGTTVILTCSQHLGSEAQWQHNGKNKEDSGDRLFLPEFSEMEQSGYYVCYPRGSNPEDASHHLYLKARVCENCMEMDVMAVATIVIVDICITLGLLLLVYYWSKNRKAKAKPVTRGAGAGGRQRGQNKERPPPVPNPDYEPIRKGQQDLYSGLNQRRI

[3] = molecular target: T2, recombinant human TROP-2/human IgG Fc …; assay: SPR (BIAcore 3000), TROP-2/Fc captured on anti-human IgG(Fc), bispecific as analyte, 1:1 binding model
Protocol: The bispecific molecule was assayed for its binding to TROP2 using BIAcore 3000 (GE Healthcare Bio-Sciences Corp.) by the capture method, which involves capturing the antigen by an anti-human IgG antibody and assaying the bispecific molecule as an analyte. The antigen used was recombinant human TROP-2/human IgG Fc fused form (R&D Systems, Inc.). Approximately 2000 RU of the anti-human IgG(Fc) antibody (Human Antibody Capture Kit, GE Healthcare Bio-Sciences Corp.) was covalently bound to a sensor chip CM5 (GE Healthcare Bio-Sciences Corp.) by the amine coupling method. Similarly, this antibody was immobilized onto a reference cell. The running buffer used was HBS-P (10 mM HEPES (pH 7.4), 0.15 M NaCl, and 0.005% Surfactant P20). The bispecific molecule was prepared at a 2-fold dilution ratio from 200 nM to 1 nM. A 1 μg/ml solution of the antigen was added onto the anti-human IgG(Fc) antibody-immobilized chip for approximately […]. Then, each concentration of the bispecific molecule was added at a flow rate of 30 μl/min for 300 seconds. Subsequently, the dissociation phase was monitored for 600 seconds. A 3 M magnesium chloride solution was added as a regenerating solution for 30 seconds. The data was analyzed using the 1:1 binding model of analytical software (BIAevaluation software, version 4.1.1) to calculate an association rate constant (ka), a dissociation rate constant (kd), and a dissociation constant (KD; KD=kd/ka).

[4] = molecular target: T5, human CD3 on human PBMC (human, UniProt P07766 23-207); assay: flow cytometry on human PBMC (dead cells and CD19-positive cells excluded), Penta-His Alexa Fluor 488 detection, rMFI
T5 construct: Native CD3 complex on T cells in PBMC; the other chains of the complex are native; also called human CD3 (PBMC)

[5] = molecular target: T3, human TROP2 on FaDu and HPAF-II cells; assay: flow cytometry on FaDu and HPAF-II cells, Penta-His Alexa Fluor 488 detection (rMFI)
Protocol: The cells were washed twice with PBS containing 5% FBS, then adjusted to a concentration of 1×10⁶ cells/mL with PBS containing 5% FBS, added at a concentration of 100 μL/well to a 96-well U-bottomed microplate, and centrifuged to remove a supernatant. […] The cells were washed twice with PBS containing 5% FBS.

[6] = molecular target: T3, human TROP2 on FaDu and HPAF-II cells; assay: flow cytometry on HPAF-II cells, Penta-His Alexa Fluor 488 detection, rMFI
[7] = molecular target: T4, cynomolgus monkey CD3 on cynomolgus …; assay: flow cytometry, hybridoma supernatant on cynomolgus monkey T cell line HSC-F
Protocol: A cynomolgus monkey T cell line HSC-F (JCRB Cell Bank, No. JCRB1164) was adjusted to a concentration of 5×10⁶ cells/mL in an RPMI1640 medium containing FBS and added at a concentration of 100 μL/well to a 96-well plate. […] Then, the supernatant was removed, and the cells in the wells were washed once with PBS containing 5% FBS, then suspended by the addition of Anti-Rat IgG FITC conjugate diluted 500-fold with PBS containing 5% FBS, and left standing at 4° C. for 1 hour. The cells were washed three times with PBS containing 5% FBS and then resuspended in PBS containing 5% FBS and 2 μg/ml 7-aminoactinomycin D, followed by detection using a flow cytometer. The data was analyzed using Flowjo. After removal of 7-aminoactinomycin D-positive dead cells by gating, the FITC fluorescence intensity of live cells was plotted to a histogram.

[8] = molecular target: T6, human CD3εδ expressed on transfected Lenti-X293T cells (human, UniProt P07766 23-207; P04234 22-171); assay: flow cytometry, hybridoma supernatant on hCD3ε/hCD3δ-transfected Lenti-X293T cells
T6 construct: Cells co-transfected with hCD3ε-pcDNA3.1 and hCD3δ-pcDNA3.1
Protocol: On the next day, hCD3ε-pcDNA3.1 and hCD3δ-pcDNA3.1 or a control pcDNA3.1-DEST was transfected to the Lenti-X293T cells using Lipofectamine 2000, and the cells were further cultured overnight at 37° C. under 5% CO₂ conditions. On the next day, the expression vector-transfected Lenti-X293T cells were treated with TrypLE Express (Thermo Fisher Scientific Inc.), washed with DMEM containing 10% FBS, and then adjusted to a concentration of 5×10⁶ cells/mL in PBS containing 5% FBS. The resulting cell suspension was used in flow cytometry analysis.
The hCD3δ-pcDNA3.1- and hCD3δ-pcDNA3.1-transfected Lenti-X293T cells or the pcDNA3.1-DEST-transfected Lenti-X293T cells were suspended by the addition of the hybridoma culture supernatant and left standing at 4° C. for 1 hour. The cells were washed once with PBS containing 5% FBS, then suspended by the addition of Anti-Rat IgG FITC conjugate (Sigma-Aldrich Corp.) diluted 500-fold with PBS containing 5% FBS, and left standing at 4° C. for 30 minutes. The cells were washed twice with PBS containing 5% FBS and then resuspended in PBS containing 5% FBS and 2 μg/ml 7-aminoactinomycin D (Molecular Probes, Inc.), followed by detection using a flow cytometer. The data was analyzed using Flowjo. After removal of 7-aminoactinomycin D-positive dead cells by gating, the FITC fluorescence intensity of live cells was plotted to a histogram.

[9] = molecular target: T1, human CD3εγ single-chain antigen; assay: complex mixed at a molar ratio of 1:2, purified by gel filtration and crystallized
Protocol: The buffer solution was replaced with 10 mM Tris HCl (pH 7.5) and 50 mM NaCl using Amicon Ultra 15 MWCO 10K (Merck Millipore), and the resulting solution was concentrated to 3.5 mg/mL. This concentrate was purified by gel filtration chromatography using Superdex 200 10/300GL (GE Healthcare Bio-Sciences Corp.). A fraction of the complex was concentrated into approximately 4.0 mg/mL using Amicon Ultra 15 MWCO 10K (Millipore).
To 0.5 μL of the protein solution, an equal amount of a precipitant solution (0.1 M MES monohydrate (pH 6.5), 1.6 M ammonium sulfate, and 10% v/v 1,4-dioxane) was added, and the resulting solution was placed in a sealed container containing 0.05 mL of a precipitant solution so that the solutions had no contact with each other. The container was left standing at 25° C. One month later, 0.1 mm×0.05 mm×0.05 mm rod-like crystals were obtained.

[10] = molecular target: T5, human CD3 on human PBMC; assay: flow cytometry on human PBMC, Penta-His Alexa Fluor 488 detection (rMFI)
Protocol: Commercially available human PBMC (Cellular Technology Ltd. (CTL)) was adjusted to an appropriate concentration with PBS containing 5% FBS. LIVE/DEAD Fixable Near-IR Dead Cell Stain Kit (Thermo Fisher Scientific Inc.) and an anti-CD19 antibody (Beckman Coulter Inc.) were added to the cells, which were then left standing at 4° C. for 30 minutes. The cells were washed twice with PBS containing 5% FBS, then adjusted to a concentration of 1×10⁶ cells/mL with PBS containing 5% FBS, added at a concentration of 100 μL/well to a 96-well U-bottomed microplate, and centrifuged to remove a supernatant. […] The cells were washed twice with PBS containing 5% FBS. Then, Penta-His Alexa Fluor 488 (Qiagen N.V.) diluted with PBS containing 5% FBS was added at a concentration of 30 μL/well, and the plate was left standing at 4° C. for 30 minutes. The cells were washed twice with PBS containing 5% FBS and then resuspended in PBS containing 5% FBS, followed by detection using a flow cytometer (FACSCanto™ II; Becton, Dickinson and Company). The data was analyzed using Flowjo (Tree Star Inc.). The mean fluorescence intensity (MFI) of Alexa Fluor 488 in a fraction free of dead cells and CD19-positive cells was calculated. The MFI value of the scFv-unsupplemented sample was subtracted from the MFI value of the scFv-supplemented sample to calculate a relative value of MFI (rMFI).

[11] = molecular target: T7, CD3 immobilized on a sensor chip (Example 7)-1-2); assay: SPR (BIAcore T-200), CD3 immobilized, scFv injected at five concentrations; concentration giving 1/2 Rmax
T7 construct: the text says only 'CD3 immobilized on a sensor chip'; also called human CD3
Protocol: Five different concentrations of the scFv were injected into CD3 immobilized on a sensor chip. Rmax was estimated from the resulting response, and the antibody concentration that reached 1/2 thereof was defined as the dissociation constant of the scFv for CD3.

[12] = molecular target: T4, cynomolgus monkey CD3 on cynomolgus …; assay: flow cytometry on cynomolgus monkey PBMC

Binder | Kd [1] [nM] | binding result [2] | Kd [3] [nM] | EC50 (read off the curve) [4] [nM] | further results
B1 | 13.9 | binds | 12.8 | ~1 | –
B2 | – | – | – | – | binding result [5]: binds
B3 | 126 | binds | 11.9 | ~10 | EC50 (read off the curve) [6]: ~10 nM
B4 | – | – | – | – | binding result [7]: binds; binding result [8]: binds
B5 | – | – | – | – | binding result [9]: binds; binding result [10]: binds; Kd [11]: 4.5 nM; binding result [12]: binds

Source: patent publication US20190359712A1 (Daiichi Sankyo, published 2019)
